In a protein production outcome set (Wang et al. 2014):

assay: label from the status in PepcDB records
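Also: failed if final PepcDB status was selected cloned or expressed and not failed if soluble or beyond.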

Sequence	protein production
MMKEKLESKKDEIRCCYKITDTDVAVLLKMVEIEKPITSEELADIFKLSKTTVENSLKKLIELGLVVRTKTEGKKIGRPKYYYSISSNILEKIRNDLLNCAKRMELAAT	not failed
MMKEMTVQQMTEKVLNKESLFILDVRNESDFRDWKIEGENFAYLNVPYFELVHGVDSIVDRLPKDQDIVVVCAKGGSAAFVAEQLAEAGFDNVYTLAGGMQAWSEHLHQAKVYEDDQLKIYQFIRVGKGCLSYMVLSGDEALVVDPLRFIDVYEQVAQQEGVTITHIVDSHLHADHLSGGKALAERTGAAYYLMKSEGAVFDFEPLEQHETIDFENVHLEVLAVKTPGHTPGSVSFFVNGKWLFSGDTIFVGGLGRPDLGGKVAEWAEDLYHTVYEKVAAMADDVIVLPAHYANLDEEINAEGYVGDTLGRIRARNEMMQNKAKDEFIDLVIQGAKTETPPNFEDIVAINRGLKTVDIETQRELEIGPNRCALHHTHA	failed
MMKIFIRILLLFYYVFILLACGDKKESISINYILMARVTNMQTDEIKIDTPSRTIFIKLITGGDLSNVHVNLTLAKGVEMVEPANTESVYDFTKPASVTLKYKEEIITYHFIIDTEYNIVDPATLGWVKSTEWGTLPDYLAIYKSPSTLKGKNAVAYIAVADMDKNASFSVLGNATGVKTLTQFYNAESVKPAIVMNGGYFASNGATVSLLYRNNVMLAPNLQSMSRSDGTSNVAFYPTRSAFGEIENGKFEVNWVYTVSSGQTYAYPAPSPNKSGVSPMQIPSVNYPEGASIWKAKNAIGGGPVLLKNGLYKNTWEAELFDTASGIGPTSNNPRSAIGITGDNRLIFFVCEGRNKTPNVPGFTLEEVAYILRDLGCLDAMNLDGGGSSCMLVNGQETIKPSDGAQRSVTTAVAIK	failed
MMKKSATTSSACNGCPAHSGNKLRRMGTDAERYDFTIALAGNPNTGKSTVFNALTGLKQHTGNWPGKTVEKAEGAFSYAGSSYKIVDLPGTYSLLSTSEDEEIARDFILFGKPDVTLIVADATRLERNMNLILQILEITDRAVLCANLMDEAERNGVEIDLRGLSRRLGIPVVGASARSGEGISDLLSALSEVAQGIYRCTPHRLTSIGTEIDTRIDSLAESIRLFHPDTPNSRWLALRLTEGDRRVENILYADNEAPAEKLKKEVDEFRRNFGEDLHDQLSEALYSDAGKICQEVITQANKRGRTPLDIKIDRIVTSRKWGFPIMLLMLALVLWITIVGSNYPSQWLSDSLVGILHPLLKTRATGFLPDWLSGFLIDGVYLATAWVVSVMLPPMAIFFPLFTLLEDFGFLPRVAFNLDELFRRSGAHGKQALTMTMGFGCNAAAIINTRIIDSQRERLIAILTNNFSLCNGRWPTQILLATIFLTPAVPAYLRGVIGIGSVVAIALLGIAFMFFFSWVLSRTLLRGQVSTFNLELPPYRPPQFWQTIYKSIVDRTLVVLWRAVVFAAPAGALIWLTCNIQIGGVGIAEYLIDLLDGPGWLMGLNGVILLAYVLAIPANEIVIPTILMLTVLTTGIDGGTGAGVMFEADGTAETARLFEAGGWTMLTGINLMLFCLLHNPCSTTLFNIYKETGSRKWTLLAALIPLATGFVVTVAVAFVWRLVGG	failed
MMLGPEGGEGYVVKLRGLPWSCSIEDVQNFLSDCTIHDGVAGVHFIYTREGRQSGEAFVELESEDDVKLALKKDRESMGHRYIEVFKSHRTEMDWVLKHSGPNSA	not failed
MMNASSISSRFKDLFVTPSIVFDFDGTLAIGHGPVLAYALCVAPEGSKDFLERVRRELRRYDDGQSIYRDGYDIVAKLASELGIDDGTMSVAYGESRKLLGSDLAPVEHVRGIKDILSSLKGHARLVLATNAPENGVHDLLRQWGVADLFDQLHFVVGKPAGLISIISDLQLDGPVLAVGDIYEFDLSPAAQLGADTALVGATATISEAKVSMRGDSIADLPLLAWVSSRVSSS	failed
MMNKPAPRELEVIRSTYITPHMLRITLGGAGLAGFPADQESAYIKLLFPQAGERPLMRTYTIRQQRDDEIDVDFVLHDTDGPASSWAKTAQVGELIQIGGPGLKKLINFEADWFLLAGDMTALPAISVNLAKLPNNAVGYAVIEVLSEADIQPLVHPEHVELHWVINPEADPEGRPLVERIAQLPWLAGEPAVWIACEFNSMRALRRHFKQAHALPKSHFYTSSYWKIGCNEGEHKLVKQEDEQLENGASV	not failed
MMNTKVALKQLMATHFITVDVPCPECGGAMTAWKEPTPDTPPRCPPVCMECGYRSVKKKEATTAKNLYESSLIKKAKDYFLNGSVLTDRKSLHKKISNYYPSNQESTKAKNISMEFCEKTLLGEIHHLILTGGVGVGKSHLAIGCLNEILVKSNYSKKVLFVSYRELLEQLKFAMNDEEARKAITGVAMSEIKAADVVVLDDIGAELGDFNKRDEKGNLILSRASNFDIDTLTGILESRIDKPTIITSNLKSKEIKYCYGERIVSRMATHSNGFMHRFTNTKDYRLKTALEHHHHHH	not failed
MMPPPAVPPQLPEVPAADLPRVRAPLSTYRRPQRTDFVTPTGGPFFAKQDKALNTIDLKMAHDLKLRGYRVKVAVVDEGVRSDHPLLNVEKKYGGDYMADGTRTYPDPKRQGRHGTSVALVLAGQDTDTYRGGVAPNADLYSANIGTRAGHVSDEAAFHAWNDLLGHGIKIFNNSFATEGPEGEQRVKEDRNEYHSAANKQNTYIGRLDRLVRDGALLIFAAGNGRPSGRAYSEVGSVGRTPRVEPHLQRGLIVVTAVDENGRLETWANRCGQAQQWCLAAPSTAYLPGLDKDNPDSIHVEQGTSLSAPLVTGAAVLVQDRFRWMDNDNLRTTLLTTAQDKGPYGVDPQYGWGVLDVGRAVQGPAQFAFGDFVARVTDTSTFGNDISGAGGLVVDGPGALVLAGSNTYAGRTTIKRGTLDVFGSVTSAVTVEPGGTLTGIGTVGTVTNQGTVVNKEAGLHVKGDYSQTAQGLLVTDIGSLLDVSGRASLAGRLHVDDIRPGYVGGDGKSVPVIKAGAVSGVFATLTRSPGLLLNARLDYRPQAVYLTMRRAERVHAAAQRGADDGRRASVLAVAERLDAAMRELDALPESQRDAAAPAAAIGRIQRVQSRKVLQDNLYSLAGATYANAAAVNTLEQNRWMDRLENHLAQAGGERVAAIAEYRHGQLRWRPDGLQGRQRGNGIMLGLAREVSAGLSLAAALTHSRTHWDESSGAPARDNAAMTTPGVLLGARRAWEDGWFVQGALGYSRYRNQATRHISLGDAGHTVGATARGHVWQADAGLGRQWTLAPGHTLAPRAGLQLTHLRQQGFSESGAQGLGLRAHALTRTVPTLWAQLQSRHAFMLGATPMTAQLQLGVWHDLRARRYAASGGFAGLAQDQGASGYWPVPRTRVQGALGLRAEFAPGLVLGLGYTGQLATHWVDHQLSASLTYRY	failed
MMPPQRSAGTDPEAEHPQYAGQYLLEAALGSGGMGVVHLARSASGLRLAVKVVHAQYAQDPEFRGRFRQEVAAARRVSGAFTAPVVDADPGAGRPWMATLFIPGPTLAEHVKRNGALPPARLRHLMAGLAEALRDIHRAGVVHRDLKPSNVLLAEDGPKVIDFGISRPSDSELRTETGKLIGTPPFMAPEQFRRPREVGPAADVFALGSVIVHAATGSGPFDSDSPYLVAYQVVHDEPDLTGVPEELAELVAGCLAKEPDDRPTPDELMTALRSVSASYDTQAFIPVQRDGSSGSAWRPGPGPGTGPGTGPGPGPGHGGERVVTHQVRQPEPVAAPAARKRLGRRLWIPAVAVAVLACVAGALVLLGPGTGAPREQDAAPSKAAFQPWDIGLSAGGSKATGMAQCAYAPHRLYCTRPGVLAAAVDPADGKVLWSRGDAKRHSDGTVRPPVLSGGLLHVVSEGGKRLAALDPATGKTRWSHDLAAYGGRFAQVGGVVLLTGADARVTALDAATGEEKWRRRIPGQPQPAFVSYGDGLAYAVAAAGSGTKVAAVDPESGATRWQRRFDGVLSLVGAHDGAVWFASTTADSDTDAVVRYDVTRRTVRRVGLRFPLQGAQAVVRKDTVYVLANGGALVAVDTRTSKELWRLETSVSFASAPVAAGDRVYFAGADGRLLAVDASKGVLLGQTKARLGGAHGSLVSGLPSPVAADGKVYSAAPDGSLFAVDARRPGGW	failed
MMRCLTITIMFFMFFFLSVIQKCKSETSKSGDYIIYMGAASSDGSTDNDHVELLSSLLQRSGKTPMHRYKHGFSGFAAHLSEDEAHLIAKQPGVLSVFPDQMLQLHTTRSWDFLVQESYQRDTYFTEMNYEQESEMHEGDTIIGFLDSGIWPEAQSFNDRHMGPVPEKWKGTCMRGKKTQPDSFRCNRKLIGARYYNSSFFLDPDYETPRDFLGHGTHVASIAAGQIIANASYYGLASGIMRGGSPSSRIAMYRACSLLGCRGSSILAAFDDAIADGVDVISISMGLWPDNLLEDPLSIGSFHAVERGITVVCSVGNSGPSSQSVFNAAPWMITVAASTIDRGFESNILLGGDENRLIEGFGINIANIDKTQAYPLIHARSAKKIDANEEAARNCAPDTLDQTIVKGKIVVCDSDLDNQVIQWKSDEVKRLGGIGMVLVDDESMDLSFIDPSFLVTIIKPEDGIQIMSYINSTREPIATIMPTRSRTGHMLAPSIPSFSSRGPYLLTRSILKPDIAAPGVNILASWLVGDRNAAPEGKPPPLFNIESGTSMSCPHVSGIAARLKSRYPSWSPAAIRSAIMTTAVQMTNTGSHITTETGEKATPYDFGAGQVTIFGPSSPGLIYETNHMDYLNFLGYYGFTSDQIKKISNRIPQGFACPEQSNRGDISNINYPSISISNFNGKESRRVSRTVTNVASRLIGDEDTVYTVSIDAPEGLLVRVIPRRLHFRKIGDKLSYQVIFSSTTTILKDDAFGSITWSNGMYNVRSPFVVTSKDDNDSER	failed
MMRDSPSIQGTLDAATQHALLAGRHADPFSVLGPHQAGAHTVVRVLAPGARTVMAVLPGGQRTPLLPMQPGLFENTVPGLQPGAPAAYRLCIEWEGGIQHTADPYAFGPVLD	failed
MMRFVIGFLLSILASISLVSPANAAVIDHDKVVGFEEVTPTTITQKVAKRFQPYLTVSTGCVPFPAVDADGNTSGGLAPTGPHNGGCSSHIGQVYSRSTWHNGVWAIMYAWYFPKDSPSPGLGHRHDWEGIVVWVDNPANPSPQLLSIAYSQHGNFYNVAPTDRNTREQRPLIRYSHAWPLNHSLWIHDQVGGTQPLIGWDDLTPAARHALNTTDFGAANVPFNDHNFINNLRKAWYRLEHHHHHH	failed
MMRMKVKVVVNGKEYEVEVEEVMPGKFRVTLEGETYEVETSAGFVTSPKQVQVPTPAPTPAPAPTPTPAPAPSSKTVVSENVVSAPMPGKVLRVLVRVGDRVRVGQGLLVLEAMKMENEIPSPRDGVVKRILVKEGEAVDTGQPLIELG	not failed
MMRPLCFFLLIFLLSGNPVMAAELRPFICVNEKDHLPSLDPQADAWYREAVALAKPDTLRPWDRIVDLYSKAVERGHWKAMHNLASLYRTGWPGGVEKDTQKALDLYQKMIDLKVPQGFYDMAAMIGNRAGVKNPATDGLTFLDKAASLGNPPALTELGRLYIYVAGQDELGLKYTNCAAGQGYAPANYELAMYYRLVAHNYPKAAGYYLLAASQGNDDAAFFMSGVFDKTSPDVDRMWYAPDEKLHKLYDGIYDQLAADPDLRFPNLIKDHPLPPHPTQGYDADRPDWKPGQ	failed
MMRRFKFVVQNITAKIVYTRICMGTIQKIRTDVNVLHAAIHRIEWLFETFSSVCLSFSGGKDSTVLLHLTADVARRKKRRFSVLFIDWEAQYQCTIAHILKMREMYRDVTETFYWVALPLTTVNGVSQFQPEWICWEPGVEWVRQPPDDAITDMSYFPFYRYAMTFEEFVPAFSSWFAGNRCGVAILTGVRADESLNRFMGLVSQRKLRYADDKPWTTASPEGFYYTLYPLYDWKARDIWIYNARTRAIYNPLYDLMYRAGVPLRNMRVCEPFGPEQRKGLWLYHVLEPETWARMCERVSGAASGALYANESGAYFALRKRITKPPHHTWRSYAMFLLDVMPERTAEHYRNKIAVYLRWYQTRGFPDDIPDEQENDLGSRDIPSWRRICKTLIKNDFWCRTLSFSPNKPRHYERYLQRMKERRKEWGIL	failed
